According to US20190382483A1 (OSE IMMUNOTHERAPEUTICS, published 2019):

Tests used:
[1] = biological target: T1, SIRPa variant 1 on human monocytes (homozygote v1/v1) (human, UniProt P78324 31-504); experiment: flow cytometry on human monocytes (SIRPa v1/v1)
T1 construct: the target on the cells is SIRPa v1; also called human monocytes v1/v1; SIRPa v1
Procedure: FIG. 7. Binding analysis of antibodies on human monocytes (homozygote for SIRPa variant 1 (v1/v1)). […] Revelation was performed with a PE labeled mouse anti-human Fc mAb on CantoII cytometer, values corresponding to percentage of stained monocytes.

[2] = biological target: T2, Recombinant hSIRPg-His (Sino Biologicals, reference 11828-H08H) (human, UniProt Q9P1W8 29-360); experiment: Blitz, hSIRPg-His on Ni-NTA biosensor
T2 construct: Bought recombinant protein; also called human SIRPg recombinant protein; not shown: histidine tail
Procedure: This method was performed with a Blitz (Forté Bio; USA; reference C22-2 No 61010-1). Recombinant hSIRPg-His (Sino Biologicals, Beijing, China; reference 11828-H08H) was immobilized at 10 μg/ml by histidine tail into a Ni-NTA biosensor (Forte Bio; USA; reference 18-0029) for 30 seconds. Then, an antibody was associated at 20 μg/mL for 120 seconds. The dissociation of antibody was made in kinetics buffer for 120 seconds. Analysis of data was made with the Blitz pro 1.2 software, which calculated association constant (ka) and dissociation constant (kd) and determined the affinity constant KD […].

T1 sequence (P78324 31-504 limits assumed, change not shown): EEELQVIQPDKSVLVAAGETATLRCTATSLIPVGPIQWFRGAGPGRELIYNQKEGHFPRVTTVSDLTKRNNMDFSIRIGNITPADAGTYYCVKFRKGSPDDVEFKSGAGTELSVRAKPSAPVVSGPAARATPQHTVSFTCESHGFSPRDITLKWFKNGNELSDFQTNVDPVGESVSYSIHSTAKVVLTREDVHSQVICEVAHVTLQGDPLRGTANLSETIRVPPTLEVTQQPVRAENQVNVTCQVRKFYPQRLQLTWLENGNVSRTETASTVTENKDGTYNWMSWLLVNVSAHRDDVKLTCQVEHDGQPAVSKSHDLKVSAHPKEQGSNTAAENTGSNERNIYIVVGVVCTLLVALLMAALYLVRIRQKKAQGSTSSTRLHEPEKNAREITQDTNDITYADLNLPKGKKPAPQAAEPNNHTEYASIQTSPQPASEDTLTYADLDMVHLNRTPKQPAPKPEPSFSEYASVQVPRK
T2 sequence (Q9P1W8 29-360): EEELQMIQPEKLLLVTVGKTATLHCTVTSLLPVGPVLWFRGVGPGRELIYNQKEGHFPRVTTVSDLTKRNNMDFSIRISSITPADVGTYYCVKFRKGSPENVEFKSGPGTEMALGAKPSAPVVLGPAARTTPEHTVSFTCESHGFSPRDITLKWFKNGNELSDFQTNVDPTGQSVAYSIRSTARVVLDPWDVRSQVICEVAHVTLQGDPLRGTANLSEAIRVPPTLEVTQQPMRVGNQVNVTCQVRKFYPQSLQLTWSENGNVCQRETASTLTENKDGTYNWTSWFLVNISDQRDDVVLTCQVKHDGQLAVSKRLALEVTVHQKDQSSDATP

binding result [1]: binds
binding result [2]: binds
B1: Kwar23 (antibody, V domains shown)
VH: EVQLQQSGAELVKPGASVKLSCTASGFNIKDYYIHWVQQRTEQGLEWIGRIDPEDGETKYAPKFQDKATITADTSSNTAYLHLSSLTSEDTAVYYCARWGAYWGQGTLVTVSS
VL: QIVLTQSPAIMSASPGEKVTLTCSASSSVSSSYLYWYQQKPGSSPKLWIYSTSNLASGVPARFSGSGSGTSYSLTISSMEAEDAASYFCHQWSSYPRTFGAGTKLELK
notes: Commercial antibody (Creative Biolabs, Cat. No TAB-453CT); also called TAB-453CT (Creative Biolabs)
